Experiment: soluble on expression in E. coli; label from the status in PepcDB or PDB records
With “MGSDKIHHHHHHMRTVYAIVVNYNNFDDTAECIDSLLNQTYPCRVVVVDNGSEREVIEKLRRKYPQVEMLELGENRGYAGGCNAGIRAVIDKADYVLISNNDVVFERDAVERMVSEMEEDETIAACQPVVKYYGDERIWSAGTRIFLGYPVLHLKNKMVEVEISFDSPFGLVGCAMLIRSSALKDVGFFDEELFMMHEETEWCIRARKKGYRLAVCKAVVRHKVSASLGLFSPHYLYYTARNWLIVARRAGKAMFFYALITEPLRVLYYLVRLKRKGDIIQYLKGVVHGILSRKGRRC” the “soluble on expression in E. coli” value was “not soluble”. In the case of “MGSDKIHHHHHHMRTVYIIGSKGIPAKYGGFETFVEKLTEYQKDKSINYFVACTRENSAKSGITGEVFEHNGATCFNIDVPNIGSAKAILYDIMALKKSIEIAKDRNDTSPIFYILACRIGPFIYLFKKQIESIGGQLFVNPDGHEWLREKWSYPVRQYWKFSESLMLKYADLLICDSKNIEKYIHEDYRKYAPETSYIAYGTDLDKSRLSPTDSVVREWYKEKEISENDYYLVVGRFVPENNYEVMIREFMKSYSRKDFVLITNVEHNSFYEKLKKETGFDKDKRIKFVGTVYNQELLKYIRENAFAYFHGHEVGGTNPSLLEALSSTKLNLLLDVGFNREVGEEGAKYWNKDNLHRVIDSCEQLSQEQINDMDSLSTKQVKERFSWDFIVDEYEKLFKG”, the “soluble on expression in E. coli” value was “not soluble”. In the case of “MGSDKIHHHHHHMRVIPPIKSIIYFEAAARLQSFKLAAMELNVTPGAISHQISTLEDFIGKKVFERGSRRVTLTYCGLRYYSRISIILQNMEEATVDLGIEGSKPKIKIAIPPSLLKNWLLPRLVDDKLKDLNRSVEFIDTLDYLEFSKCDLDLAIRYGYDSWDNLYSVFLFHEEMIPVCHPNYFISEFTDFTQEIIDNHTLIFTNNRLVQWDIVMQYFGLERKSTQSKLIFQNSIQAIEAAIQGAGIAYVNRILVSKELSNGRLIQPFDIYMPKHKSPAYHLVSTYEHMQDEATFKLYQTILEFAKSTPHQHIVNAQAKQNAWLEHAV”, the “soluble on expression in E. coli” value was “not soluble”. In the case of “MGSDKIHHHHHHMRVLLLSDIHSSTQNLEKILKAAEYDAVFIAGDLTQFRPKDAKVVDEIISEQTDSCLAVHGNCDHEAILGEKYKALKFIHGKSVEFDGYTVHGVGGSGITPFNTPSEYTEREILEIMDNFVLRDFNILLSHCPPKGFLDRTYSGVHAGCEAIRERMIEFDVILCGHIHESHGVVDSPQLIVNPGPVMWGRFAVIDVEKKVVELRKL”, the “soluble on expression in E. coli” value was “not soluble”. For “MGSDKIHHHHHHMRWFSLATAFLWGYYGFDNFGDELMFKACVNLLRELGFGTIYTPLPKGKKSMGVTSVDRYSIKLLSLLKKSQVSIAGGGGLFQDVTSLRSLLYYYSISKASLLMDKPLIFFGNSVGPLRRRLSKKLVWDVFKDKRTVFIARDPASYRYVKMVGGNAVLGTDPAIIHLMESDMEKKTEKKAVFFLKSPMDVSYILKSLRDQGINDFVISTAFPGDHSYLPPLRNGENLLEEIVSSSIVITERFHPALVAAYFEIPFIIVDCQKARRFFARYTKEDHFFSKRDPLEISLKVPVVLKKELKLKEKMKNDAIEMKEMLKGVLKGW”, the “soluble on expression in E. coli” value was “not soluble”. In the case of “MGSDKIHHHHHHMSAFWPFRLTTGCNVNLKFLETFIWVAKLRSFSLAADKLHSTQAAISSRISVLEQELGAKLFTREPKGVALTRAGERVLQHAEQVNESMTRLYASLQDEKFAFGTIRIGAMDSAIHSWFVNFVSDVMHYYPNLDIEVTSETALNLNEQLRRGMLDMVIQTDMLRDETIRSIEVLELSMGWVAAANSPIVSQEAYDTPTAALRGLGRERLITYSRHSRPHQDLLRLMQSYGIGESRVSCVNSVAAMIQLTQAGFGVAAMPPALVPELLNSGVLRQLEGLEAPPPLPFVIAWRSGTNWTERLVEVAVETVSKYAARLGQDAARLVV”, the “soluble on expression in E. coli” value was “not soluble”. For “MGSDKIHHHHHHMSAIPIIDIPFDKRHTCWFCGEPCNQHFEYHSQTHTPHPSLAVPACSECAKLAKQHPLTSIWDCRMAVKDALMRIYAKHLAIGINWTEAELAESDFSCNIFEGFKKSAWMMYQIARDRINAPGWPLRLEEIEIDDQGYSAGFEFDGVTYTSVHAAIHYYSTQFTLDPTFFADLVRLVGRARFNYALRLARIHIASAKEMKRQVLTDLEAELI”, the “soluble on expression in E. coli” value was “not soluble”. With “MGSDKIHHHHHHMSAQIIQLHTEAPAASVAQSPRKPTKAEKAIIADYVQDLIRRGFCKITDKSAKETRLFNRFDGEPQTLSYLRENFTEWLDDNGKECEFFCERYFIRRLKHIVGRVFKPNAPEFTQSPITGYRYANTYRRYEPTVDSADLPSCFHAYFERMFPAKHQRHIVLQWLAHIFRRPDQRPSWHLMLLSEPGTGKGFLVQNILQPLLHHTSVVASYSRITGKHSAVLVENLVILLDDCKSRSEATQTEMKSFLSEERALVERKYASAGMEDTYARMILASNEEIPLYVDPNERRWYIPDDVVHLVDLRETQANIIQPLADWLDEPGSLCKVYNWFMQYPLDGFNHKSVPESEGLTRLIDKSKGPYRQYIEDYVKDNKVFTYADLVESMTDAKLSKPSDRELGHVLREIGYEATQRRIDGVRLRLCHPVGMSLQDIRAAYSASPTDPNTPF” the “soluble on expression in E. coli” value was “not soluble”. In the case of “MGSDKIHHHHHHMSASLILTLSCEDKPGIVARVTGNLFEAGGNIREAQQFDDPLSGRFFMRVVFDPAEGSVEHYRAAFAAVADHYAMEWNLRDTTVKRKVILMVSKFDHCLGDLLYRTRIGELPMDVVAILGNHPKEALNISLIGDIPYHHLPITKDTKPQQEAEVKRIVTETGAELVVLARYMQILSDDLAAFLSGRCINIHHSFLPSFKGAKPYHQAHARGVKMIGATGHYVTADLDEGPIIHQDVETVTHADSPDDLVRKGRDVERRVLAEAVRLHLEDRALVNGNKTVVFKS”, the “soluble on expression in E. coli” value was “not soluble”. For “MGSDKIHHHHHHMSAVLYSNLKFLRFKDQLDALAGGTVAPPVHIRIKPTNRCNHKCWYCAYRTDDLKLGEDMDESDLIPEAKMMEIADDIVAMGVKAVTFSGGGEPLLYKPLPEVIDRLAAGGVRVATLTNGANLKGKVAQSLARHATWVRVSVDAWDDDSYVSSRGAKAGEFTKLLENMKAFVETGTKCVLGVSFIAGKDNYHRLSEVCARFKAIGVNHVKLSAAVVGNSVDENNRYHREFAEGARAEIERAKALSGDGFSVLDHFHEMESRFEKDYHRCPFLQFLTVIGADQTVYTCQDKAYTKEGTLGSIRGRSFRDYWFSEENRQRMAEFDPSRLCRHHCVSHSKNQAIMQYLSIDSEHGLFV”, the “soluble on expression in E. coli” value was “not soluble”. In the case of “MGSDKIHHHHHHMSDIHKKIKKKQFAPLYLLYGTEAFFINETIKLITTEALEEEDREFNVVTYDLEEAYLEDVVEDARTLPFFGERKVLLIKSPLFLTSQKEKLEQNIKILEEYIGEPSPFSILVFVAPYEKLDERKKITKLLKKTADVVEANAMQVQDVQKWIVARADEVHVHIDHAAVSLLLELVGSNVTMLAKEMDKLTLYVGMGGDITPKLVAELVPKSVEQNVFALTEKVVKKDIAGAMQILDGLFTQQEEPIKLLALLVSQFRLLHQVKELQQRGYGQNQIASHIGVHPYRVKLAMNQTKFFSFEELKKVIMELAEADYSMKTGKMDKKLVLEFFLMRLNHM”, the “soluble on expression in E. coli” value was “not soluble”. For “MGSDKIHHHHHHMSDKFGEGRDPYLYPGLDIMRNRLNIRQQQRLEQAAYEMTALRAATIELGPLVRGLPHLRTIHRQLYQDIFDWAGQLREVDIYQGDTPFCHFAYIEKEGNALMQDLEEEGYLVGLEKAKFVERLAHYYCEINVLHPFRVGSGLAQRIFFEQLAIHAGYQLSWQGIEKEAWNQANQSGAMGDLTALQMIFSKVVSEAGESE”, the “soluble on expression in E. coli” value was “not soluble”. For “MGSDKIHHHHHHMSDVDTHPIDRGAGGHNPQKPIRVAQIVGKMVGGGVEAVVMNYYRHIDRSKVQFDFLVDEDSTRVPEEEITSLGGRVFRIPPYQHPIRYRRELIRLMREQQWPIVHSNINTLSVFPLSAAKKVGVPVRIAHSHSTMGKGEFAKNVMKLVLRPFANVYPTVRFACSRYAGKWLFGKNADFTVIPNAIELDKFRFNTEMRKQTRKELGISDDTFLIGHVGRFMPQKNQTFLVDVLAGLLPKRPDAMLAFVGDGPDRTAVQQHVEELGMADHVLFLGQRSDVNRLYQAFDAFCLPSLYEGLGIVAVEAQVADLPCLLSDVVPSEADVTASSYFLQITDVKPWIETLSNLHSSKRSDQISGDIEEYDIQRCANSLVKKYESFICK”, the “soluble on expression in E. coli” value was “not soluble”. For “MGSDKIHHHHHHMSEDLLNSFQEAYSNLELFPLMERNEMERFRVEYGDDLIADLNQLVEDSPNGDGKIVFTGHRGCGKSTLLAEFSRQIQDKYFVVLFSIADKIEMSAVNHINILFAIAVNLMTEAEARKVDIPQSTKEALYKWFATRTRTEESNLQAEVSIGFDLLKLISSKLKADASVRDEIKQEFERKLSDLVARINEIAALIQAATKQNVLVIIDDLDKLDLGRVNEIYRDNIKALCQPNFQIIYTIPIAVLRETFISTIIATETNDQVVAMPVLKIFDKGKNRFPNAQPRREATKILGEVLQKRIPNELIAAETAEKIVIYSGGVLRELIRISKECCRICLRTIRRNPSAEVIIDDKILLQAINKIRNDFSIRLGKTDIDILQSVYEQFMPNDPKQAEFLDLLHGLYVLEYRTDETWYDVHPIIIESLKRQGAINVK”, the “soluble on expression in E. coli” value was “not soluble”. For “MGSDKIHHHHHHMSEKSASNNKAEFKRQSSPFREIISADHPIYKPAKGRYWLYVALPCPWAQRTLITRALKGLAPIIGCSVAHWHLDDKGWRFLEEGDGKTNERHWFDIAGGISSVNLNTSTPVANIPNNAHRLLVDGTDEPHYGYKRLSDFYFKTKPDYKGRFTVPVLWDLETCTIVNNESSDIIGIMNSAAFDEFVGEEYRQVRLVPRSLEAQITEFNSWVYDKINNGVYKAGFAECAEVYEREVTSLFQYLDKLENLLDKKYTDLEAEYGKNNKDKILDRYFAIGDTLTEADVRLYPTIVRFDVVYHQHFKCNLATIRDDYSRIHTWLKNIYWRHEAFQRTTDFTHIKLGYTRSQPRVNPIGITPLGPKPDIRPP”, the “soluble on expression in E. coli” value was “not soluble”. With “MGSDKIHHHHHHMSELPNSHATTLLAAPDTEIDVRETFGIDIDMKVPAFSRADERVPDRDDTYVFDPDTTLAILAGFAYNRRVMVQGYHGTGKSTHIEQVAARLNWPCIRINLDAHISRIDLVGRDAIVLRDGLQVTEFREGLLPWALQTPTALVFDEYDAGRPDVMFVIQRVLETEGKLTLLDQNRVIRPNKFFRLFATANTVGLGDTSGLYHGTQAINQGQMDRWNLVVALNYLPEATEVEIVTKKVPDLDPKIVTDMVRVANLTRQGFINGDISTVMSPRTVISWAQNSQIFNDVGFAFRLSFLNKCDETERVLVAEYYQRVFGKDLPESVAHRG” the “soluble on expression in E. coli” value was “not soluble”. With “MGSDKIHHHHHHMSEMMIVAVTGGKGGTGKSTLSANLFFYFIENYKTALIDCDVETPNLPYLTGCEDLFLAREVFIEVPNIEEGKTYNYNNVCKEGALLKVGDKLIFIEDLCSGCKACGINSNITFKKKSIGKIYEKKFDNGYLIVGKSNLGERKTAKIVTETKKYGLSKNCEINIVDTAAGTHCNVVRALINADKVLIVTEPTPFGVSDAKRIIKVVEKLNIPYKIVLNRYGISDLKIGYNFKIPYDKRIVECYCKGESFLKYNDLRNYIEEIANWIIWG” the “soluble on expression in E. coli” value was “not soluble”. For “MGSDKIHHHHHHMSEPIIISIHNYKSAGVTFYSIIDRQFKKDEILNSDLLGMDDTYLMLSQADEKIINKIKIIHGHFPFGLDRLLPQKSTYITFLRNPIERLISDYYYCKDFALAHNHSYASTMSFKEYLSCSDILNIDNGQTRFVAGGENVPYGDNSIEMLNRAIENIEKRFSFVGITEKFDESLLIANAVFSWNQYYYTSKNITSSKSYDFDEETWELLRKRNFLDLQLYEYALKKHAGDLKKIPYVKLKMILLKTLKSLFVVTKSIYAPVKKRFFR”, the “soluble on expression in E. coli” value was “not soluble”. For “MGSDKIHHHHHHMSEQVRSLSEFTAEVEAMTAAMMTEEPQEIASMRCGEMENTAGSYGQYFGTWDIAHGMLRDYSMYTLYPITALAEDAEMDLTSLSKTVDALDPAYSNYLRYSGFPRMGKLAVELRGLIRASTSRSDIVAALRAFTAYTNRLQAWSFHYFPWGLGKHFRYDEARLQDAPLPVADLGATRACITCGQRIRISWEPLGITVNATLASEENPELCADVVAALPFTVIQDHAVVTGESMYAWTPVLSTAPIHLRERICDAPVGRLRYSQSTGQKFIVQYGPTTEDLSQPVLGEIDAADAGKLEQVGRAVWDSTFDNKQLIWMTVELA”, the “soluble on expression in E. coli” value was “not soluble”.

— the DeepSol protein solubility set
